Laboratory results published in patent US20260200991A1.

Target: Flag tagged HIV-1 Env with the 7aa Erbin PDZ domain binding sequence fused to its C-terminus (HIV-1)
Test: cell-based or functional assay

Ebola VP40-Erbin PDZ fusion protein
normalized VLP ELISA (Env display on VLPs) (fold decrease): 2
